In PMC3942486, “The Ansamycin Antibiotic, Rifamycin SV, Inhibits BCL6 Transcriptional Repression and Forms a Complex with the BCL6-BTB/POZ Domain” (PLoS ONE, 2014):
pKd: −log10 of the molar value.

Biological target: BCL6-POZ domain (residues 7 to 128 of human BCL6, C8Q, C67R, C84N) (UniProt P41182)
Assay: fluorescence polarisation

wild-type SMRT peptide, labelled with BODIPY TMR H1426(styrylalanine)
pKd: 4.39

wild-type SMRT peptide, labelled with BODIPY TMR H1426(homophenylalanine)
pKd: 4.37
